Data as given in patent US20190144498A1 (Johns Hopkins, published 2019).
* marks the point of attachment. B(OH)2 = OB(O)*

Target: T1, endogenous GlpG in living E. coli cells (Escherichia coli, UniProt P09391 1-276)
T1 sequence (looked up): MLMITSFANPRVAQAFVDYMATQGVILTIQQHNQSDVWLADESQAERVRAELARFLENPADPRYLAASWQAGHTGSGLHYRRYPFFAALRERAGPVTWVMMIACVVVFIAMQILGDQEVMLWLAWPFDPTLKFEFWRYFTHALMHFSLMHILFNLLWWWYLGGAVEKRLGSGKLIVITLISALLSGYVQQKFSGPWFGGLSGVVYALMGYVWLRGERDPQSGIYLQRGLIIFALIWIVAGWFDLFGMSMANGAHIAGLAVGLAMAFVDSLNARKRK
Assay: cell-based or functional assay

B1: Ac-VRMA-B(OH)2 (peptide)
peptide: Ac-VRMA-{B(OH)2}
SMILES: CSCC[C@H](NC(=O)[C@H](CCCNC(=N)N)NC(=O)[C@@H](NC(C)=O)C(C)C)C(=O)N[C@@H](C)C(=O)B(O)O
- EC50 of inhibition of endogenous GlpG activity (TatA-Flag cleavage) in living E. coli cells: < 1000 nM
- fold increase in potency of GlpG inhibition relative to the aldehyde (Ac-VRMA-CHO): > 100 fold
- fold increase in potency of GlpG inhibition relative to the chloromethylketone (Ac-VRMA-CMK): > 400 fold
